According to US20170369542A1 (Pieris, published 2017):
Positions count from the first letter of the chain named.

T1: synthetic non-modified human Hepcidin-25 (human, not fully specified)
T1 peptide: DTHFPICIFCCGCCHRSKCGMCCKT

T2: cynomolgus Hepcidin-25 (cynomolgus, UniProt A7XEI3 60-84, not fully specified)
T2 construct: mature
T2 peptide: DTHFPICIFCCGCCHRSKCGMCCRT

T3: C-terminal biotinylated human Hepcidin-25 (human, not fully specified; biotinylated via a Lysine residue coupled to the C-terminus via a Mini-PEG linker)
T3 construct: Bought from Bachem AG; Captured on plates via Neutravidin; also called C-terminal biotinylated hepcidin; C-terminal biotinylated hHepcidin
T3 peptide: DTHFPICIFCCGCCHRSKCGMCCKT

B1: lipocalin mutein of SEQ ID NO: 7 (designed binder)
chain: QDSTSDLIPAPPLSKVPLQQNFQDNQFHGKWYVVGLAGNRVLREDKDPQKMFATIYELKEDKSYNVTGVDFRTKKCLYSIGTFVPGSQPGEFTLGVIKSQPGWTSYLVRVVSTNYNQHAMVFFKTVWQNREVFWITLYGRTKELTSELKENFIRFSKSLGLPENHIVFPVPIDQCIDG
notes: also called Lcn2 mutein
B2: lipocalin mutein of SEQ ID NO: 5 (designed binder)
chain: QDSTSDLIPAPPLSKVPLQQNFQDNQFHGKWYVVGAAGNSLLREDKDPMKMWATIYELKEDKSYNVTRVNFGGKKCSYLIETFVPGSQPGEFTLGSIKSRPGATSVLVRVVSTNYNQHAMVFFKLVTQNREVFWITLYGRTKELTSELKENFIRFSKSLGLPENHIVFPVPIDQCIDG
notes: also called Lcn2 mutein
B3: lipocalin mutein of SEQ ID NO: 4 (designed binder)
chain: QDSTSDLIPAPPLSKVPLQQNFQDNQFHGKWYVVGVAGNEMLREDKDPLKMLATIYELKEDKSYNVTRVMFEYKKCVYLIETFVPGSQPGEFTLGTIKSVPGLTSGLVRVVSTNYNQHAMVFFKRVWQNREVFWITLYGRTKELTSELKENFIRFSKSLGLPENHIVFPVPIDQCIDG
notes: also called Lcn2 mutein
B4: lipocalin mutein of SEQ ID NO: 6 (designed binder)
chain: QDSTSDLIPAPPLSKVPLQQNFQDNQFHGKWYVVGLAGNEILREDKDPLKMWATIYELKEDKSYNVTRVQFGEKKCGYGIETFVPGSQPGEFTLGSIKSVPGGTSRLVRVVSTNYNQHAMVFFKFVWQNREVFWITLYGRTKELTSELKENFIRFSKSLGLPENHIVFPVPIDQCIDG
notes: also called Lcn2 mutein
B5: lipocalin mutein of SEQ ID NO: 1, linked to albumine-binding domain (ABD) (SEQ ID NO: 15) (designed binder)
chain: QDSTSDLIPAPPLSKVPLQQNFQDNQFHGKWYVVGLAGNEVLREDKDPMKMWATIYELEEDKSYNVTIVMFLAKKCEYLFQTFVPGSQPGEFTLGDIKSSPGRTSGLVRVVSTNYNQHAMVFFKVVWQNREVFWITLYGRTKELTSELKENFIRFSKSLGLPENHIVFPVPIDQCIDGSAGAVDANSLAEAKVLANRELDKYGVSDYYKNLINNAKTVEGVKALIDEILAALPSAWSHPQFEK
notes: also called ABD-fusion protein
B6: lipocalin mutein of SEQ ID NO: 3 (designed binder)
chain: QDSTSDLIPAPPLSKVPLQQNFQDNQFHGKWYVVGVAGNGLLREDKDPLKMHATIYELKEDKSYNVTRVLFVRKKCRYYISTFVPGSQPGEFTLGRIKSEPGRTSFLVRVVSTNYNQHAMVFFKMVWQNREVFWITLYGRTKELTSELKENFIRFSKSLGLPENHIVFPVPIDQCIDG
notes: also called Lcn2 mutein
B7: lipocalin mutein of SEQ ID NO: 10 (designed binder)
chain: QDSTSDLIPAPPLSKVPLQQNFQDNQFHGKWYVVGLAGNEILREDKDPMKMWATIYELKEDRSYNVTIVMFLAKKCEYLFQTFVPGSQPGEFTLGDIKSSPGRTSGLVRVVSTNYNQHAMVFFKVVWQNREVFWITLYGRTKELTPELKENFIRFSKSLGLPENHIVFPVPIDQCIDGF
notes: also called Lcn2 mutein
B8: lipocalin mutein of SEQ ID NO: 2 (designed binder)
chain: QDSTSDLIPAPPLSKVPLQQNFQDNQFHGKWYVVGTAGNSILREDKDPQKMWATIYELKEDKSYNVTRVFFEGKKCRYVIETFVPGSQPGEFTLGKIKSAPGGTSILVRVVSTNYNQHAMVFFKVVWQNRELFWITLYGRTKELTSELKENFIRFSKSLGLPENHIVFPVPIDQCIDG
notes: also called Lcn2 mutein
B9: lipocalin mutein of SEQ ID NO: 1 (designed binder)
chain: QDSTSDLIPAPPLSKVPLQQNFQDNQFHGKWYVVGLAGNEVLREDKDPMKMWATIYELEEDKSYNVTIVMFLAKKCEYLFQTFVPGSQPGEFTLGDIKSSPGRTSGLVRVVSTNYNQHAMVFFKTVWQNREVFWITLYGRTKELTSELKENFIRFSKSLGLPENHIVFPVPIDQCIDG
notes: also called Lcn2 mutein; hNGAL mutein
B10: lipocalin mutein of SEQ ID NO: 8 (designed binder)
chain: B9 chain with E59K, F71P, K74E, D96G, S100G, T125V, I135V
notes: also called Lcn2 mutein
B11: lipocalin mutein of SEQ ID NO: 9 (designed binder)
chain: B9 chain with E59K, F71S, T125V, E147G
notes: also called Lcn2 mutein
B12: lipocalin mutein of SEQ ID NO: 14, linked to PEG40 (designed binder)
chain: B9 chain with S87C
modifications: branched 40k PEG-maleimide on the free Cys at position 87
notes: hNGAL mutein with Ser 87 back-mutated to Cys and PEGylated there
B13: lipocalin mutein of SEQ ID NO: 12 (designed binder)
chain: B9 chain with E59K, K74E, K75E, T125V, E150K
notes: also called Lcn2 mutein
B14: lipocalin mutein of SEQ ID NO: 11 (designed binder)
chain: B9 chain with V41I, E59K, T125V, E147G
notes: also called Lcn2 mutein

How the values were obtained:
[1] = target: T1, synthetic non-modified human Hepcidin-25; test: cell-based or functional assay
cynomolgus Hepcidin-25 [2] = target: T2, cynomolgus Hepcidin-25; test: direct ELISA on cynomolgus hep-25, mutein titrated
Description: (§1) A “direct” ELISA was performed to verify the binding affinity and specificity of the selected Lcn2 muteins. Therefore, a constant concentration of 1 μg/ml C-terminal biotinylated hepcidin (Bachem AG, CH) was captured on the surface of a polystyrol plate (Greiner, GE) via Neutravidin (Thermo Scientific, 5 μg/ml). Two step dilution series of purified Lcn2 muteins were incubated with the captured hepcidin for 1 h at room temperature and detected either via the Strep-tag II using a rabbit anti-strep-tag II polyconal antibody (GenScript, USA) or by using a scaffold-specific polyclonal rabbit antibody. In both cases an anti rabbit IgG-HRP conjugate (Abcam, UK) was employed as secondary detection antibody.
(§2) The absorption ΔA at […] was measured in an ELISA reader (Tecan, GE) and the data were fitted with Graphpad Prism software (Statcom, USA).

[3] = target: T1, synthetic non-modified human Hepcidin-25; test: competition ELISA: non-biotinylated human hepcidin-25 titrated against a constant concentration of mutein; free mutein detected on plate-captured biotinylated human hepcidin
Description: The binding affinity of the Lcn2 muteins to non-modified hepcidin-25 in solution was evaluated in a competition ELISA approach. Therefore, a constant concentration of 1 μg/ml C-terminal biotinylated human hepcidin (Bachem AG, CH) was captured on the surface of a polystyrol plate (Greiner, GE) via Neutravidin (Thermo Scientific, 5 μg/ml, GE). In parallel a two step dilution series of non-biotinylated human hepcidin starting from 1 μM was incubated with a constant concentration of hepcidin-specific mutein for 1 h at room temperature in a non-protein binding 96 well polypropylene plate (Nunc, GE). The constant concentration of lipocalin muteins corresponds to the EC₅₀ of the respective muteins as determined in a direct ELISA as described above in this example. In the following the mixture of non-modified human hepcidin and lipocalin mutein was transferred onto the hepcidin-captured Neutravidin plate. The C-terminal biotinylated hepcidin was allowed to compete with the non-modified hepcidin for Anticalin binding for 20 min. at room temperature. During these 20 min, free lipcocalin mutein was bound to the captured hepcidin and detected via a rabbit anti-strep-tag II polyconal antibody (GenScript, USA). A goat anti-rabbit IgG-HRP conjugate (Abcam, UK) was employed as secondary detection antibody. Parallel to the competition assay, anticalin binding was determined on the same plate in a “direct” ELISA, in order to obtain a standard curve linking the RFU values to anticalin concentration. This curve was then used to standardize competition data to the level of anticalins bounds to the plate and fitted with Graphpad software. IC₅₀ values correspond to the half-maximum amount of lipocalin mutein bound to the plate.

[4] = target: T3, C-terminal biotinylated human …; test: direct ELISA, biotinylated hepcidin captured via Neutravidin, mutein titrated
Description: as §1, §2

cynomolgus Hepcidin-25 [5] = target: T2, cynomolgus Hepcidin-25; test: SPR, Biacore T100, mutein amine-coupled to CM5 chip, hepcidin as analyte, 25 C
Description: (§3) Lipocalin muteins were immobilized to a CM5 sensor chip using standard amine chemistry: The surface of the chip was activated using EDC and NHS. Subsequently, 20 μg/mL lipocalin mutein solutions in 10 mM sodium acetate pH 4.5 (60 μg/mL in 10 mM sodium acetate pH 4.0 for pegylated lipocalin mutein) were applied at a flow rate of 5 μL/min until a surface density of 500-700 resonance units (RU) for non-modified lipocalin muteins and of approximately 1600 RU for pegylated lipocalin with the sequence of SEQ ID NO: 13 was achieved. Residual activated groups were saturated with ethanolamine. The reference channels were treated with EDC/NHS following ethanolamine (blank immobilization). All reagents and materials were purchased from GE Healthcare.
(§4) Serial dilutions of human and cynomolgus Hepcidin-25 in running buffer (HBS-EP+, GE Healthcare, BR-1006-68) were applied to the prepared surface. The following parameters were used for the binding assay: contact time 60 s, dissociation time 180-360 s, flow rate 30 μL/min. All measurements were performed on a Biacore T100 instrument (GE Healthcare) at 25° C.
(§5) Data were evaluated with Biacore T100 Evaluation software (V 2.0.1). Double referencing was used. The 1:1 Binding model (Langmuir) was used to fit the raw data.

cynomolgus Hepcidin-25 [6] = target: T2, cynomolgus Hepcidin-25; test: SPR (Biacore T100), mutein immobilized on CM5 chip, hepcidin-25 in solution, 1:1 model
Description: as §3, §4, §5

[7] = target: T1, synthetic non-modified human Hepcidin-25; test: as above
Description: as §3, §4, §5

Binder | IC50 of neutralization of hepcidin-induced (40 nM) internalization and degradation of FPN-GFP in T-REx-293 cells, GFP fluorescence by flow cytometry [1] | Kd (cynomolgus Hepcidin-25 [2]) | IC50 [3] | Kd [4] | fold higher affinity compared to the human target (cynomolgus Hepcidin-25 [5]) | Kd (cynomolgus Hepcidin-25 [6]) | koff (cynomolgus Hepcidin-25 [6]) | kon (cynomolgus Hepcidin-25 [6]) | Kd [7] | koff [7] | kon [7]
B1 | 79000 pM | 220 pM | 1300 pM | 480 pM |  |  |  |  |  |  | 
B2 |  | 6830 pM | 10800 pM | 4130 pM |  |  |  |  |  |  | 
B3 | 62000 pM | 2030 pM | 600 pM | 1390 pM |  |  |  |  |  |  | 
B4 | 65000 pM | 790 pM | 1700 pM | 760 pM |  |  |  |  |  |  | 
B5 | 39000 pM | 220 pM | 370 pM | 480 pM |  |  |  |  |  |  | 
B6 |  | 590 pM | 380 pM | 840 pM |  |  |  |  |  |  | 
B7 | 25000 pM | 820 pM | 180 pM | 750 pM |  |  |  |  |  |  | 
B8 | 62000 pM | 3150 pM | 9000 pM | 2120 pM |  |  |  |  |  |  | 
B9 | 66000 pM | 430 pM | 340 pM | 260 pM | ~2 fold | 332 pM | 0.000934 s⁻¹ | 2.84e+06 M⁻¹ s⁻¹ | 589 pM | 0.00116 s⁻¹ | 1.97e+06 M⁻¹ s⁻¹
B10 | 31000 pM | 670 pM | 100 pM | 660 pM | ~2 fold | 66 pM | 0.000245 s⁻¹ | 3.74e+06 M⁻¹ s⁻¹ | 123 pM | 0.000178 s⁻¹ | 1.45e+06 M⁻¹ s⁻¹
B11 |  | 1140 pM | 120 pM | 750 pM |  |  |  |  |  |  | 
B12 | 25000 pM | 1360 pM | 1170 pM | 2180 pM |  |  |  |  |  |  | 
B13 |  | 960 pM | 170 pM | 640 pM |  |  |  |  |  |  | 
B14 | 31000 pM | 610 pM | 110 pM | 640 pM |  |  |  |  |  |  | 
